Measured values as given in the Human Domainome abundance scans (Beltran et al. 2025).
± gives the uncertainty stated by the source.

B1: Receptor-interacting serine/threonine-protein kinase 2, residues 438 to 518; numbered along this chain, O43353 (parent)
chain: QWIQSKREDIVNQMTEACLNQSLDALLSRDLIMKEDYELVSTKPTRTSKVRQLLDTTDIQGEEFAKVIVQKLKDNKQMGLQ

Variants of: B1
Assay: abundance fitness (aPCA) (normalised: wild type 0, dead -1); higher = more abundant; growth selection in yeast, the domain comes from the species named
Conditions: Homo sapiens

Abundance fitness: each site, then its substitutions
R51: P -0.501 ± 0.064; H -0.518 ± 0.11; I -0.235 ± 0.079; V -0.273 ± 0.072; N -0.207 ± 0.11; L -0.254 ± 0.07; K -0.071 ± 0.18; C -0.307 ± 0.066; S -0.194 ± 0.047; D -0.517 ± 0.092; W -0.802 ± 0.17; Q -0.052 ± 0.17; G -0.407 ± 0.055; E -0.273 ± 0.12; A -0.145 ± 0.055; T -0.255 ± 0.08; M -0.354 ± 0.16
V50: N -0.737 ± 0.2; W -0.903 ± 0.15; S -0.389 ± 0.053; Y -0.761 ± 0.35; A -0.842 ± 0.089; Q -0.612 ± 0.1; G -0.679 ± 0.071; D -0.493 ± 0.22; P -0.53 ± 0.066; R -0.802 ± 0.079; T -0.505 ± 0.095; H -0.696 ± 0.21; I -0.524 ± 0.16; E -0.538 ± 0.18; L -0.817 ± 0.088
T42: L -0.225 ± 0.073; N -0.115 ± 0.15; C -0.108 ± 0.082; V -0.415 ± 0.061; Q 0.207 ± 0.13; R 0.066 ± 0.061; S 0.022 ± 0.061; P -0.89 ± 0.16; D -0.318 ± 0.087; A -0.069 ± 0.075; M 0.012 ± 0.1; K -0.206 ± 0.42; E -0.158 ± 0.29; H -0.156 ± 0.088; Y -0.406 ± 0.15; I -0.225 ± 0.16; F -0.243 ± 0.086
K49: R -0.283 ± 0.14; E -0.576 ± 0.33; P -0.625 ± 0.13; W -0.722 ± 0.38; D -0.389 ± 0.19; V -0.784 ± 0.22; A -0.586 ± 0.16; Y -0.625 ± 0.46; I -0.564 ± 0.29; Q -0.786 ± 0.21; T -0.761 ± 0.22; C -0.81 ± 0.33; M -0.137 ± 0.23; H -0.628 ± 0.27; S -0.58 ± 0.12
L39: E -0.003 ± 0.14; S -0.138 ± 0.071; H -0.107 ± 0.081; D -0.194 ± 0.11; I -0.352 ± 0.11; A 0.092 ± 0.08; G -0.34 ± 0.056; Y -0.407 ± 0.23; V -0.199 ± 0.079; P -0.635 ± 0.13; W -0.815 ± 0.13; C -0.379 ± 0.1; M -0.218 ± 0.23; F -0.436 ± 0.09; R 0.015 ± 0.047; K 0.119 ± 0.19; N -0.034 ± 0.17
S48: W -0.819 ± 0.13; G -0.11 ± 0.055; F -0.527 ± 0.22; V -0.534 ± 0.11; C -0.293 ± 0.1; A 0.072 ± 0.06; I -0.923 ± 0.23; R -0.466 ± 0.065; H -0.47 ± 0.2; D 0.065 ± 0.096; T -0.224 ± 0.1; N -0.892 ± 0.28; Q 0.123 ± 0.099; M -0.142 ± 0.16; E 0.542 ± 0.19; L -0.04 ± 0.075; Y -0.644 ± 0.21; P -0.651 ± 0.089
S41: N 0.094 ± 0.099; V 0.11 ± 0.05; G -0.295 ± 0.063; K 0.158 ± 0.12; P -0.599 ± 0.085; L 0.069 ± 0.054; Q 0.139 ± 0.076; T -0.004 ± 0.079; A -0.007 ± 0.064; C -0.042 ± 0.07; E -0.259 ± 0.11; Y -0.117 ± 0.11; I 0.09 ± 0.11; M 0.166 ± 0.047; R 0.046 ± 0.046; D -0.448 ± 0.098; W -0.466 ± 0.1
Y37: D -0.471 ± 0.17; G -0.519 ± 0.06; V -0.413 ± 0.091; K -0.412 ± 0.19; P -0.614 ± 0.084; W -0.232 ± 0.066; M -0.788 ± 0.2; C -0.547 ± 0.21; H -0.568 ± 0.23; S -0.518 ± 0.045; L -0.186 ± 0.068; N -0.401 ± 0.14; A -0.084 ± 0.067; Q -0.547 ± 0.11; I -0.401 ± 0.27
K34: T -0.515 ± 0.22; V -0.242 ± 0.13; W -0.243 ± 0.092; S -0.23 ± 0.065
D55: G -0.51 ± 0.05; C -0.122 ± 0.092; E -0.015 ± 0.09
L53: I -0.544 ± 0.16; F -0.785 ± 0.24; N -0.845 ± 0.22; A -0.396 ± 0.072; Q -0.567 ± 0.12; P -0.423 ± 0.064; M -0.517 ± 0.18; T -0.417 ± 0.092; Y -0.821 ± 0.18; D -0.689 ± 0.21; S -0.679 ± 0.086; H -0.666 ± 0.14; C -0.433 ± 0.12; K -0.366 ± 0.26; G -0.433 ± 0.057; E -0.536 ± 0.14; W -0.595 ± 0.095; V -0.56 ± 0.085; R -0.643 ± 0.066
D36: H -0.194 ± 0.14; R -0.718 ± 0.074; K -0.545 ± 0.14; W -1.04 ± 0.16; P -0.459 ± 0.065; Q 0.121 ± 0.084; V -0.587 ± 0.24; M -0.711 ± 0.22; C -0.839 ± 0.23; G -0.551 ± 0.1; Y -0.608 ± 0.28; L -0.791 ± 0.11; E -0.147 ± 0.11; T -0.244 ± 0.11; S -0.551 ± 0.077; A -0.267 ± 0.11; N -0.678 ± 0.37
V40: M -0.815 ± 0.22; D -0.754 ± 0.23; G -0.715 ± 0.081; I 0.146 ± 0.19; S -0.603 ± 0.079; Y -0.438 ± 0.48; R -0.836 ± 0.082; P -0.732 ± 0.11; E -0.682 ± 0.13; W -1.04 ± 0.23; H 0.095 ± 0.37; T -0.997 ± 0.2; F -0.436 ± 0.18; C -0.302 ± 0.11; A -0.528 ± 0.085; L -0.701 ± 0.1; N -0.466 ± 0.38
R46: T 0.02 ± 0.091; F -0.447 ± 0.14; C -0.285 ± 0.079; D -0.221 ± 0.088; N -0.288 ± 0.22; P -0.519 ± 0.1; H -0.012 ± 0.11; G -0.596 ± 0.054; E -0.214 ± 0.16; W -0.796 ± 0.072; M -0.411 ± 0.12; I 0.007 ± 0.15; L 0.143 ± 0.037; A -0.674 ± 0.11; V -0.045 ± 0.034
K43: P -0.695 ± 0.25; W -1.04 ± 0.34; F -0.466 ± 0.14; Q -0.098 ± 0.14; D -1.06 ± 0.37; C -0.219 ± 0.22; S -0.46 ± 0.088; I -0.535 ± 0.28; R 0.013 ± 0.061; G -0.451 ± 0.049; L -0.008 ± 0.075; H -0.109 ± 0.28; Y -1 ± 0.48; T -0.89 ± 0.25; V -0.348 ± 0.11
T45: L -0.696 ± 0.069; K -0.999 ± 0.24; N -0.011 ± 0.23; Y -1.11 ± 0.47; P -0.579 ± 0.092; R -0.879 ± 0.07; A -0.476 ± 0.082; H -0.568 ± 0.22; D 0.029 ± 0.14; C -0.308 ± 0.11; Q -0.652 ± 0.1; W -0.571 ± 0.1; E -0.364 ± 0.25; I -0.87 ± 0.21; V -0.56 ± 0.083
E35: T -0.118 ± 0.12; W -0.252 ± 0.12; G -0.256 ± 0.07; R -0.043 ± 0.073; N -0.521 ± 0.17; Y -0.514 ± 0.21; M -0.703 ± 0.11; K 0.024 ± 0.089; D -0.142 ± 0.14; V -0.408 ± 0.097; F -0.693 ± 0.19; P -0.304 ± 0.096; I -1.12 ± 0.47; Q -0.233 ± 0.1; H 0.055 ± 0.17; A -0.223 ± 0.085
T47: P -0.228 ± 0.073; N -0.286 ± 0.3; R 0.049 ± 0.051; Q -0.145 ± 0.15; V -0.153 ± 0.085; S -0.061 ± 0.091; G -0.185 ± 0.064; H 0.111 ± 0.17; D -0.152 ± 0.11; F -0.493 ± 0.33; Y -0.57 ± 0.25; C -0.254 ± 0.11; L -0.373 ± 0.097; M -0.431 ± 0.33; K -0.031 ± 0.14; A 0.121 ± 0.084; E 0.201 ± 0.15; W -0.333 ± 0.087
E38: R -0.227 ± 0.072; V -0.226 ± 0.1; G -0.509 ± 0.084; Q -0.165 ± 0.12; A -0.129 ± 0.075; T -0.157 ± 0.076; C -0.719 ± 0.13; K -0.216 ± 0.2; M -0.088 ± 0.25; W -0.12 ± 0.095; L -0.075 ± 0.076; S -0.375 ± 0.07; Y -0.237 ± 0.12; H -0.06 ± 0.13; N -0.463 ± 0.13; F -0.221 ± 0.11; I 0.053 ± 0.15
P44: E -0.141 ± 0.1; A -0.181 ± 0.079; W -0.483 ± 0.1; Y -0.2 ± 0.26; C -0.491 ± 0.15; V -0.214 ± 0.071; N -0.196 ± 0.29; L -0.263 ± 0.067; K -0.298 ± 0.16; G -0.314 ± 0.064; S -0.304 ± 0.075; Q -0.169 ± 0.11; R -0.265 ± 0.052; T -0.283 ± 0.1; H -0.761 ± 0.2
L54: F -0.936 ± 0.31; S -0.649 ± 0.079; R -0.475 ± 0.048; V -0.777 ± 0.097; E -0.3 ± 0.22; H -0.542 ± 0.14; M -0.622 ± 0.17; T -0.925 ± 0.21; G -0.519 ± 0.045; Y -0.814 ± 0.22; A -0.345 ± 0.097; P -0.553 ± 0.099; W -1.08 ± 0.16; Q -0.646 ± 0.12; D -0.452 ± 0.2; C -0.45 ± 0.06; K -0.408 ± 0.25
Q52: F -0.403 ± 0.14; Y -0.77 ± 0.41; G -0.556 ± 0.056; M -0.42 ± 0.12; A 0.082 ± 0.074; H -0.493 ± 0.15; W -0.011 ± 0.058; P -0.551 ± 0.079; C -0.203 ± 0.12; D -0.526 ± 0.25; S -0.196 ± 0.045; E -0.512 ± 0.089; K -0.442 ± 0.24; L -0.57 ± 0.084; V -0.603 ± 0.081
